The numbers were not newly measured in patent US20260265800A1, “NEW FUCOSYLTRANSFERASES FOR IN VIVO SYNTHESIS OF LNFP-III” (DSM IP Assets B.V., priority 2022, published 2026), which cites them from elsewhere.

This data set has as its system β-galactosidase activity. As to conditions: LacZ assay, cited from earlier work; for % Activity relative to PglpF: PglpF as positive reference, a range indicates results from multiple assays.

B1: PmglB_70UTR_SD9: promoter sequence, SEQ ID NO: 20 (nucleic acid)
DNA: TGCGTCGCCATTCTGTCGCAACACGCCAGAATGCGGCGGCGATCACTAACTCAACAAATCAGGCGATGTAACCGCTTTCAATCTGTGAGTGATTTCACAGTATCTTAACAATGTGATAGCTATGATTGCACCGTGCCTACAAGCATCGTGGAGGTCCGTGACTTTCACGCATACAACAAACATTAACCAAAGGAAAAACAGCT
In the case of B1, the “% Activity relative to PglpF” value was 180-226% and the Strength entry is recorded as “high (A regulatory element with an activity above 10,000 MU is considered strong)”.

B2: PmglB_70UTR: promoter sequence, SEQ ID NO: 25 (nucleic acid)
DNA: TGCGTCGCCATTCTGTCGCAACACGCCAGAATGCGGCGGCGATCACTAACTCAACAAATCAGGCGATGTAACCGCTTTCAATCTGTGAGTGATTTCACAGTATCTTAACAATGTGATAGCTATGATTGCACCGTGCCTACAAGCATCGTGGAGGTCCGTGACTTTCACGCATACAACAAACATTAACCAAGGAGGAAACAGCT
Consider B2, for which the “% Activity relative to PglpF” value is listed as 124-234% and the Strength result is “high (A regulatory element with an activity above 10,000 MU is considered strong)”.

B3: PmglB_70UTR_SD5: promoter sequence, SEQ ID NO: 22 (nucleic acid)
DNA: TGCGTCGCCATTCTGTCGCAACACGCCAGAATGCGGCGGCGATCACTAACTCAACAAATCAGGCGATGTAACCGCTTTCAATCTGTGAGTGATTTCACAGTATCTTAACAATGTGATAGCTATGATTGCACCGTGCCTACAAGCATCGTGGAGGTCCGTGACTTTCACGCATACAACAAACATTAACCAACCGAGAAACAGCT
For B3, the “% Activity relative to PglpF” value is reported as 146-152% and the Strength entry is reported as “high (A regulatory element with an activity above 10,000 MU is considered strong)”.

B4: PmglB_70UTR_SD7: promoter sequence, SEQ ID NO: 24 (nucleic acid)
DNA: TGCGTCGCCATTCTGTCGCAACACGCCAGAATGCGGCGGCGATCACTAACTCAACAAATCAGGCGATGTAACCGCTTTCAATCTGTGAGTGATTTCACAGTATCTTAACAATGTGATAGCTATGATTGCACCGTGCCTACAAGCATCGTGGAGGTCCGTGACTTTCACGCATACAACAAACATTAACCAAGAGCAAAACAGCT
Turning to B4, the “% Activity relative to PglpF” value is 127-173% and the Strength entry is recorded as “high (A regulatory element with an activity above 10,000 MU is considered strong)”.

B5: PmglB_70UTR_SD4: promoter sequence, SEQ ID NO: 21 (nucleic acid)
DNA: TGCGTCGCCATTCTGTCGCAACACGCCAGAATGCGGCGGCGATCACTAACTCAACAAATCAGGCGATGTAACCGCTTTCAATCTGTGAGTGATTTCACAGTATCTTAACAATGTGATAGCTATGATTGCACCGTGCCTACAAGCATCGTGGAGGTCCGTGACTTTCACGCATACAACAAACATTAACCAACTAGGAAACAGCT
In the case of B5, the “% Activity relative to PglpF” value is 153%-353% and the Strength entry was “high (A regulatory element with an activity above 10,000 MU is considered strong)”.

B6: PglpA_70UTR: promoter sequence, SEQ ID NO: 26 (nucleic acid)
DNA: GAAAACATTCATAAATTAAATGTGAATTGCCGCACACATTATTAAATAAGATTTACAAAATGTTCAAAATGACGCATGAAATCACGTTTCACTTTCGAATTATGAGCGAATATGCGCGATGCCTACAAGCATCGTGGAGGTCCGTGACTTTCACGCATACAACAAACATTAACCAAGGAGGAAACAGCT
Take B6: the “% Activity relative to PglpF” value was 102-179% and the Strength entry is “high (A regulatory element with an activity above 10,000 MU is considered strong)”.

B7: PglpT_70UTR: promoter sequence, SEQ ID NO: 27 (nucleic acid)
DNA: CCATTTAGCCATAGTAAAAACATGAATTGTTTGATTTCGCGCATATTCGCTCATAATTCGAAAGTGAAACGTGATTTCATGCGTCATTTTGAACATTTTGTAAATCTTATTTAATAATGTGTGCGGCAATTCACATTTAATTTATGAATGTTTTCTTAACATCGCGGCATGCCTACAAGCATCGTGGAGGTCCGTGACTTTCACGCATACAACAAACATTAACCAAGGAGGAAACAGCT
As for B7, the “% Activity relative to PglpF” value was 102-240% and the Strength result is given as “high (A regulatory element with an activity above 10,000 MU is considered strong)”.

B8: PglpF_SD4: promoter sequence, SEQ ID NO: 23 (nucleic acid)
DNA: ATGCGCAAATGCGGCACGCCTTGCAGATTACGGTTTGCCACACTTTTCATCCTTCTCCTGGTGACATAATCCACATCAATCGAAAATGTTAATAAATTTGTTGCGCGAATGATCTAACAAACATGCATCATGTACAATCAGATGGAATAAATGGCGCGATAACGCTCATTTTATGACGAGGCACACACATTTTAAGTTCGATATTTCTCGTTTTTGCTCGTTAACGATAAGTTTACAGCATGCCTACAAGCATCGTGGAGGTCCGTGACTTTCACGCATACAACAAACATTAACCAACTAGGAAACAGCT
Regarding B8, the “% Activity relative to PglpF” value is reported as 140-161% and the Strength result was “high (A regulatory element with an activity above 10,000 MU is considered strong)”.

B9: PglpF_SD10: promoter sequence, SEQ ID NO: 29 (nucleic acid)
DNA: ATGCGCAAATGCGGCACGCCTTGCAGATTACGGTTTGCCACACTTTTCATCCTTCTCCTGGTGACATAATCCACATCAATCGAAAATGTTAATAAATTTGTTGCGCGAATGATCTAACAAACATGCATCATGTACAATCAGATGGAATAAATGGCGCGATAACGCTCATTTTATGACGAGGCACACACATTTTAAGTTCGATATTTCTCGTTTTTGCTCGTTAACGATAAGTTTACAGCATGCCTACAAGCATCGTGGAGGTCCGTGACTTTCACGCATACAACAAACATTAACCAACTGAGAAACAGCT
With B9, the “% Activity relative to PglpF” value is 88-96% and the Strength entry is reported as “high (A regulatory element with an activity above 10,000 MU is considered strong)”.

B10: PglpF_SD5: promoter sequence, SEQ ID NO: 30 (nucleic acid)
DNA: ATGCGCAAATGCGGCACGCCTTGCAGATTACGGTTTGCCACACTTTTCATCCTTCTCCTGGTGACATAATCCACATCAATCGAAAATGTTAATAAATTTGTTGCGCGAATGATCTAACAAACATGCATCATGTACAATCAGATGGAATAAATGGCGCGATAACGCTCATTTTATGACGAGGCACACACATTTTAAGTTCGATATTTCTCGTTTTTGCTCGTTAACGATAAGTTTACAGCATGCCTACAAGCATCGTGGAGGTCCGTGACTTTCACGCATACAACAAACATTAACCAACCGAGAAACAGCT
In the case of B10, the “% Activity relative to PglpF” value is given as 82-91% and the Strength result is “high (A regulatory element with an activity above 10,000 MU is considered strong)”.
